The record followed here is patent publication US8889621B2, “Inhibiting binding of FGF23 to the binary FGFR-Klotho complex for the treatment of hypophosphatemia” (New York University, priority 2009, dated 2014).

The test concerns tyrosine phosphorylation of FRS2α and downstream activation of MAP kinase cascade. Description: Phosphorylation of FRS2α and 44/42 MAP kinase in HEK293-Klotho cells. Format: cell-based. Conditions: for inhibition of FGF23-induced phosphorylation of FRS2α and MAP kinase activation: FGF23^28-251 1 nM, 10 min. The procedure: Subconfluent HEK293-Klotho cells (Kurosu et al., “Regulation of Fibroblast Growth Factor-23 Signaling by Klotho,” J Biol Chem 281(10):6120-6123 (2006), which is hereby incorporated by reference in its entirety) were serum starved for 16 h and then stimulated for 10 min with either FGF23^28-251 (0.33 to 10 nM) or FGF23^180-251 (0.76 to 76.3 nM). In parallel experiments, cells were stimulated with FGF23^28-251 (1 nM) alone or with FGF23^28-251 (1 nM) mixed with increasing concentrations of either FGF23^180-251 (0.76 to 76.3 nM) or FGF23^180-205 (0.1 to 10 μM). Cell stimulation with FGF2 (2.9 nM) alone or FGF2 (2.9 nM) mixed with increasing concentrations of FGF23^180-251 (0.76 to 76.3 nM) served as controls. Similarly, subconfluent cells of a CHO cell line stably expressing Klotho (Imura et al., “Secreted Klotho Protein in Sera and CSF: Implication for Post-translational Cleavage in Release of Klotho Protein from Cell Membrane,” FEBS Lett 565(1-3):143-147 (2004), which is hereby incorporated by reference in its entirety) were treated with either FGF23^28-251 (0.067 to 20 nM) or FGF23^28-200 (0.04 to 12 nM).
In a separate experiment, the biological activity of the bacterially expressed FGF23^28-251 protein was compared to that of FGF23^25-251 expressed in the mouse myeloma cell line NS0 (R&D Systems). Subconfluent HEK293-Klotho cells were serum starved, and then treated with either of the two FGF23 proteins.
After stimulation, the cells were lysed (Kurosu et al, “Suppression of Aging in Mice by the Hormone Klotho,” Science 309(5742):1829-1833 (2005), which is hereby incorporated by reference in its entirety), and cellular proteins were resolved on SDS-polyacrylamide gels, transferred to nitrocellulose membranes, and the protein blots were probed with antibodies to phosphorylated FGF receptor substrate-2α (FRS2α), phosphorylated 44/42 MAP kinase and non-phosphorylated 44/42 MAP kinase, and Klotho. Except for the anti-Klotho antibody (Kato et al., “Establishment of the Anti-Klotho Monoclonal Antibodies and Detection of Klotho Protein in Kidneys,” Biochemical Biophysical Res Communications 267(2):597-602 (2000), which is hereby incorporated by reference in its entirety), all antibodies were from Cell Signaling Technology.

Entries after “also recorded” stand apart in the source; their conditions may differ. Peptide text beside a SMILES is read from it.

Regarding `CSCC[C@H](NC(=O)[C@H](CCCNC(=N)N)NC(=O)[C@H](C)NC(=O)[C@H](CCCNC(=N)N)NC(=O)[C@@H]1CCCN1C(=O)[C@H](CCCCN)NC(=O)[C@H](CC(C)C)NC(=O)[C@@H](NC(=O)[C@H](CC(N)=O)NC(=O)[C@H](CC(C)C)NC(=O)[C@@H]1CCCN1C(=O)[C@H](CC(=O)O)NC(=O)[C@H](CCCNC(=N)N)NC(=O)[C@H](CCC(=O)O)NC(=O)[C@H](CO)NC(=O)[C@H](CC(=O)O)NC(=O)[C@H](CC(=O)O)NC(=O)[C@H](CCC(=O)O)NC(=O)[C@H](C)NC(=O)[C@@H](N)CO)C(C)C)C(=O)N[C@H](C(=O)N1CCC[C@H]1C(=O)N[C@@H](C)C(=O)N1CCC[C@H]1C(=O)N[C@@H](C)C(=O)N[C@@H](CO)C(=O)O)[C@@H](C)O` [FGF23^180-205] (H-SAEDDSERDPLNVLKPRARMTPAPAS-OH; N-terminus and C-terminus assumed), the “inhibition of FGF23-induced phosphorylation of FRS2α and MAP kinase activation” value is on record as “inhibited, in a dose-dependent fashion”.

B1: FGF23^180-251: 72-amino acid C-terminal tail of human FGF23 (S180 to I251), expressed in E. coli (protein, listed as Homo sapiens)
chain: SAEDDSERDPLNVLKPRARMTPAPASCSQELPSAEDNSPMASDPLGVVRGGRVNTHAGGTGPEGCRPFAKFI
Turning to B1, the “inhibition of FGF23-induced phosphorylation of FRS2α and MAP kinase activation” value is given as “inhibited, in a dose-dependent fashion”. Under “FGF2 2.9 nM”, the “inhibition of FGF2-induced phosphorylation of FRS2α and MAP kinase activation” value is given as “failed to inhibit”. Also, where the note is “peptide alone / with FGF23”, the “FGFR activation (FRS2α and 44/42 MAP kinase phosphorylation as readouts)” value is listed as “had no activity alone; also recorded: functioned as an antagonist”.
